Reference: the NTF2 design screens of Basanta et al. (2020)

Experiment: protease stability score; higher = more stable; yeast display proteolysis, trypsin and chymotrypsin;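 also: relative to predicted unfolded state with 0 unfolded-like and 1 meaning tenfold more protease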

Row | Sequence | protease stability score
1 | SEAEEFARRVIELWIRSILTGNPDMSEKLADPNYKVHFNGVNIVGMEEFYRHLEEWRIHIDDFRIRDVRVQGDKMINDTEERITIKYGDKEIHLDVRLEIIIRKIDGRWHMHSIILH | 2.2
2 | DEEHNLSEEAMRHFFETVRTGDEELIYRLLDPNARVQINGKEHHGREDVWEFLWRNYMRADHVEVKVHHVEVQGEKVIIDLRLHVTINGKDLEIRLVLIIHKYNGRWHITELRIL | 0.555
3 | DEEEKEATHYLELFWKLKETGDWDELHRLLDPNVRLRINGKDVHGMERVTEEHLKRMKEIRIRHYHLDELRVQGDFVHIDVRVNGEIDGKRNMIEFHFHARKVDGRWFLHEVRIR | 1.79
4 | SEDRESAKWFVEMELELFLTGDFEKRLHLADPNAKIRIEINGRKHSTHGMREFLEHLLRLGIDVSHVDHIQVENYNGKLEMNLNLDIRIDGQRRHVEIHIIVDKFDGRWVLRELKVNIR | 0.642
5 | DEDERNAHRMTQILIRSQETGDEHELMRLLDPHARVIIGDKHIHGWEEFSKLEHEYWERYKNMTLHVRLRHVEVINGVAHIHTHITININGKEDRFEIEIFFLKINGRWVLHSFRVD | 0.799
6 | DEDEHRTKYWMQILIEVFKTGDWRRLWELFDPNVRLDINGKDSHGRRDMVRVFEEELRHMGINHIELRDFEIQGEKAIVHMTINVDGRRHELELIFLVVDGRVKEIRVHER | 1.88
7 | DELDRISTRLADLFIHLVETGNWEFLKELLDPDVRMIIGDFELVGRETIIEFFEKLERHLGVDHSEIVIERRHSQGEKAELHTRLIVRVNGRKRVIDTRLELHWVDGRLKEINIHEH | 1.17
8 | DEDEENAKMFTELLWRVLLTGDEELFKEMADPHVRVIFDGREIHGRDDIAHWITEMRFEINILRINDVRLVGDYIKIDGTMERQGEINGKRIRSSHRIIIFVRKINGKWHLEQLHFS | 2.26
9 | SEDEEYSHFASELFLNIFETGDWKTLLHYMDPNTRLVVNGRHHHGWKFMVEFLLHARIHTTRLKDIRTVNGKVDVDGRVDGHINGQKEERVFIINITKVNGVWILESVIIE | 0.986
10 | SEEEELEEFFIHLMIRMWDTGDFRTFKRLADPNVRLEVNGRHVVGREEVERLLRELLELLGADVIIHRDRDRDKFNGVIVVIIHGQIRQGDKFFDTHLHFVIEKVDGRWLLKSIHIEIR | 1.5
11 | SEFEKDSEHAARVLMHELHTGDFESLHELADPNDRNSLHIGDKHWFDHGRHWVRKWFERFKNATLIVEDIRLDVQGDKVRMEVDGHLNINGKHYRVHLIFILRKINGKWHVQQVDIHVD | 2.41
12 | DEDDEAAQEAVKIVEEVTKTGNWRVLLELLDPHTRVHTEHHELHGMEEYVREVQKMMQDFGVTKVEVRFHEIIIIGEKIHMRVTIHVNGVTLDTEVVSLKYNGRWYLHTLRMK | 1
13 | HEEEEKVERYTRMYWNHLLTGDEDILQELMDPHARSTEIYGDFRIENHGRKAQHWLLRRIDHITSLRIHDVQIVDGVALVDSESDYRIGDKEIRVRTELIVHVVNGKIKSVSISVR | 0.896
14 | SREDELREEFLRRILEVLRTGDFDEWKKYLDPDTRNDINGVDWVGRETAAHELERMYRHIRIKDTKVHDVRVQGDKVHIDVRVLIEFDGRERILETHIVVEKVDGRWHLKHVRFN | 1.62
15 | REEDKEFEDAVKTILHSFLTGDFDLLIKLLDPNVRIRFENVDLVGWSEYLRRLEEFGVKVHRTKRSDIRYINGVAVVIIDGEMEYGDKKTKVELNFVMQKYDGRWRTQSIHEKEH | 1.12
16 | DEDKKFIDEYLKLLEDSIETGDWRNHNELLDPNALVLVNGVELHGRELAVTHTEKFLKHMGVKHYRLHEVDIQGEKVHIHSKAHVDGRTFDLEFISHKIDGRWLMSEVRIREN | 1.24
17 | DEDREAAEFVVEHLLRALSTGNEEEFLSLLDPTVKWEIDGREYHGRELVSKILHEIRIKTTEFRSTRHEYQGDYLKLDGILHTTVEIDGKRKHLDVNLHMLILKYDGRWLLKSMSVR | 1.53
18 | DERHDDSRDLAHIFLHLLHTGDEDTIQEYLDPNAKYTLNINGVRVIMHGRETITRHWKEWLDKFKNATIHINDSTVQGDKVHNHTSMEINGQTHNTWIVVVVFNGKVRMIIVDVI | 1.29
19 | DERMEVIEELLKKISHALYTGNEKLLEQMADPNVRLEIGDKEFVGWEQLLELIREIRLSITDIDIRDERLIGNKIHLRGESRTIHVIGDKTWEERRDVHFVILKIDGKWVMHEIEYR | 1.95
20 | REEEEESQKATEHQLHSLRTGDWRSIERLLDPNTRMEINGVDSVGREYVLELFRRWLEEAGINHIELKSYEVFNGKLEIHSEVHYDGRTIKVINIVIKVNGRWLLHHVHIEDL | 0.561
21 | DENSHALEIAFRLFLEYYYTGDPDEMVELADPRTRLFVGEYDSHGREQFETLLREEFKRLGIDVQHITEWEIHVQGDKVILHVRVHEVFNGKETETEIHITMHKIDGRWLISSQKRRIV | 0.626
22 | SEDESAARHVIERMSHNLMTGDEEDLSDQFDPHVRVDINGVEIIGREELLRWLREWLRHAGVSKFNVHIIPREIRLIGDFMEINGELRMNYNGKEERTETRIIVFKFNGKWSIERMRIH | 1.72
23 | SDEEKIARLALEILIKILLTGDEKMILDNADPDVRLEVNGRQIHGMEWLSKIMTEWRFRDTHVRSVRNINGVVHVDGEQDVNYNGREETVHTHYIIEKVNGVWFLKRVVLH | 1.44
24 | SEEEKILEDALRLLIEVDETGNWKLLQEMIDPNVLVDINGRKYHGREQWIRLLHEFIRDAGVQRIHSDIEHIEIQGEKIIMHGMLDINGQRRRTEVIAHKYDGRWFVEEIRIR | 2.11
25 | TEEEKHARLVKEHIVEILKTGDEREWMERADPNMYMTVGNKEQHGREQVMHLIERLLKELGIKHSHIKRLELQGDKVHLDVELNFNGVTRDSRLIFIVINGRFHEVIIIIH | 0.947

Row | Sequence | protease stability score
26 | DKEEKELEELVKLMVELSDTGDWKTFYQLADPHTKLHNLVDGKWDEQHGRENFVEVERKLRERFKGLRVERHDISVQGNKVHVDVILHVNGREMEIDEVFVIINGKLESVEIHVR | 1.19
27 | NELEDLVRWAWQLIVESHQTGNEHMMEELADPNMRIHINGVDLVGRKDFRKMLKDHRDRVDHLEVELTDFILIDGRVIVHGQINIQIGDKREERRVRLFLLKINGKWRIEKLEVE | 1.64
28 | DEEDREAHEAIRILIDLLRTGDFDSLTRLADPHVRLDIGDKRLHGMKDFSRWILELRIHNFDLRHFDLVGDKIHVEGSLHTEFNGKHHEIHIQINITKVNGRWKIDEVTSL | 1.63
29 | NHEEEERHETFRIFLESVRTGDWKNTEKLLDPNARQVWNGKVLHGRESVIEVMRELRVDSLDVKSFDIQGEKAIMHGESEGVFNGKRLNMTLETHLVKVDGKWFLRELVII | 1.23
30 | SEEEEWAEIASKLEIEIYLTGDFERFRKFADPHVRYEIHIDGREFKIHGMELYSEWLLRFKGVRLFIKDERISVIGDKLYIHINGDLEFNGRRQDVHFEFLTLKVDGRWIVKKIRNESR | 1.59
31 | SEDEEKLQHMTHLFIHLEITGDEKLWTELADPNVRLDINGVEYHGREHVLRSWVELGIKVMRLHRRTAQGDKMHLDGTIDFNGRRYRIHVDVKIIDGKLKDTKQHIE | 2.17
32 | DEEEEDFRMAEHFIRKSLKTGDERLREELMDPHVRIHQGDKHFHGREDASELHRQFDHIEHVHLKDFHFYNGRVIMHMHVLGHWDGRRTRFDTHVTATKIDGRWIVKEWTII | 0.552
33 | DDDHLRKVEDFMRAQLEGDPDRLKQLADPNVRMNVGEKKVHGMQDIATEQASTYKTARYEIKSLDSKTEGDKVVITMRVQADNNGQPHDETFHLKARLENGKIVEQSKENDG | -0.531
34 | SEEEHLLREILERIIHIYSTGDEQILKHLMDPHVKITVEVNGRRIIFHGMEQYIQWYRDLGFDHSKVKLRDHRIIGDKAHAVTELEIHFDGKRREEETREVIVVIDGRLTTWHTSVN | 0.898
35 | DEDRESEEKAIKTWWHMVETGDEKLFKKLADPDTKMVINGVEKHGMETVHEFLNRVDHIRQFDIEDHRFYNGRLELHIRVDVEFNGRRHETERRVIASKVNGRWLLKEVIVH | 0.689
36 | DEEERKMEEALRLMKTTHDTGDWDLERELFDPNVKMDINGRELHGRRHWEKLRKDFGLDNIRFTLRHIDSQGDFILIRGDVEINGVRLDVIIIAEKINGRWIVREVRLR | 0.718
37 | SEDEDELKEWIRIIIHLLTTGNEDLIENNADPNVRIEFNGKTYHGMEDFHEWMRYAINELRFHDFRLDSFRIVNGKVDLNTTLIGNINGVLTRRETRMIIIKVNGRWLIHALVFK | 1.75
38 | REEEEHAEKVVKLMLHWLHTGDEEKFINNADPNVKLQIDGQRIHGWDDWERRMNEKLQRVDYIDNVVIRHIDNQGDKAIFHGELRGIQGDKHFTFHVELRIRVVNGVIHEMEIIIR | 2.05
39 | DRHEELNKEIAEELVHWHRTGDWEEIQRNMDPNVRMEINGVENVGRETMAEILHEWLSRIKGLRVEIKHVEIIGDKVHIHGRININGRERNTHIDLHVVNGQMHELIIKVE | 0.279
40 | TEIEKLLDEIVKHFLWAFLTGDWDKVAKLADPNTKSVWNGVDLVGMHLNEHVLEMLIRRYDVIHSIHLRSYRTQGDKLHVDSELNMIQGDKEETVRVRITLHVVNGRLKSIEVRIE | -0.002
41 | DEQERHAEEFVREHMNAWVTGDWEMLIRQLDPNTRFIQGDKRHHGREALHYMRERVDHIKSVHIDRVDVYNGRVIIDIELIGLIDGRDVTFHVHIITKKIDGRWIVHELRHE | 0.82
42 | DDDRRSLEDWIKISIESMKTGDEDEFEHLADPNPRMVVGDKHLVGRERAVHVFREWRVKHMTVKDHPIIDGRIEMDTRVTVHFNGRDIELELRIIIHKVNGKWLVEEIIIK | 0.381
43 | SHEDELIEKTLHITLEAYTTGDEHTVTRMLDPHVKILFNGVELIGRELVWEHLKEIRMHWHHVHIEDIKRQGEKIHITGRLYMEIRQGDYRERSTYRTRIITLKINGRWFIESLEIN | 1.95
44 | SEHEEASERMTRLTLHLFETGNEEVFNRLADPHTRVIINGQEHVGRETVIEFLKKERDELGADVLIIKDIDVERQGEKVEVIFHGEIKFNGRYYKVEIIIIYLKVDGKWFIESMKHIVK | 2.37
45 | DEEEEEMHRRARIFLELWMTGNEEVFNTLFDPNVRLHMNIGEKTHDFVGRETVHEVNRRWLEHIRIEDFKVREIRVQGDYATSDTRIVGIFDGRRIDIDVKIHILIVDGRLKEVELRFD | 2.1
46 | SEHDEYAKKVVEIIWKDMLTGDEDKFSEMADPDVRLDIGDKHHHGMEEMTEILTRVYKHIRIEDWRIRDIRHINGKAVVDGHTTIEIGDKRIHRRVELIVIVIDGRLKTLEYRVH | 1.09
47 | SEHKEEIIQLAEEIFRKIVTGDWERFWELADPHVRFDVGDKTRHGREKVIEYINRFMKELRFERFHIDDIRVIDGVVVIHTKLRFRVGDFQLHHHTRHEIMMVDGRIQFLRIEWE | 0.096
48 | DEDEKEAEHAAKLFSRHFRTGDEDLLREMIDPNVRIRIGDKELHGWEEFTRLMREWRFDDVHVEHIHVQGDKVIVDSILHVIINGRHIDFRSHIYIEKIDGRWVIRSFEIR | 0.651
49 | DEEERFAEEAVEIIIRDWMTGDEELLHRNADPHMRIEVGDKTIHGMENFVKFLLEIRMKDSRLRVEDVKHYNGKLHLTFKSEVDGRVNGRRKTLTFDIKMIIEKVDGRWILKTIHIV | 1.89
50 | SEDEELSKYLNEEINEILRTGDEDRWKELADPNTLLIIDGREFHGMELVIHLLHHLWKRLGIDQIHSTVEDEKVQGDKIIFHHRLEYNGRESHVIIISHKFNGRWRAKRVEVN | 1.43
